The results in this text go back to patent publication US20130059772A1, “Use of Repeat Sequence Protein Polymers in Personal Care Compositions” (DANISCO US INC., priority 2003, published 2013).

Where a chain is given by its changes, count along the chain named.

B1: SELP47K-3: SELP variant, 3 subunits, no lysine substitution (SEQ ID NO:27) (protein)
chain: MDPVVLQRRDWENPGVTQLNRLAAHPPFASDPMGAGSGAGAGSGVGVPGVGVPGVGVPGVGVPGKGVPGVGVPGVGVPGVGVPGAGAGSGAGAGSGAGAGSGAGAGSGVGVPGVGVPGVGVPGVGVPGKGVPGVGVPGVGVPGVGVPGAGAGSGAGAGSGAGAGSGAGAGSGVGVPGVGVPGVGVPGVGVPGKGVPGVGVPGVGVPGVGVPGAGAGSGAGAGSGAGAMDPGRYQDLRSHHHHHH
modifications: SELP-47K-3
B2: SELP58: SELP variant, 13 subunits (SEQ ID NO:31) (protein)
chain: MDPVVLQRRDWENPGVTQLNRLAAHPPFASDPMGVGVPGVGVPGVGVPGVGVPGVGVPGVGVPGVGVPGVGVPGAGAGSGAGAGSGAGAGSGAGAGSGAGAGSGVGVPGVGVPGVGVPGVGVPGVGVPGVGVPGVGVPGVGVPGAGAGSGAGAGSGAGAGSGAGAGSGAGAGSGVGVPGVGVPGVGVPGVGVPGVGVPGVGVPGVGVPGVGVPGAGAGSGAGAGSGAGAGSGAGAGSGAGAGSGVGVPGVGVPGVGVPGVGVPGVGVPGVGVPGVGVPGVGVPGAGAGSGAGAGSGAGAGSGAGAGSGAGAGSGVGVPGVGVPGVGVPGVGVPGVGVPGVGVPGVGVPGVGVPGAGAGSGAGAGSGAGAGSGAGAGSGAGAGSGVGVPGVGVPGVGVPGVGVPGVGVPGVGVPGVGVPGVGVPGAGAGSGAGAGSGAGAGSGAGAGSGAGAGSGVGVPGVGVPGVGVPGVGVPGVGVPGVGVPGVGVPGVGVPGAGAGSGAGAGSGAGAGSGAGAGSGAGAGSGVGVPGVGVPGVGVPGVGVPGVGVPGVGVPGVGVPGVGVPGAGAGSGAGAGSGAGAGSGAGAGSGAGAGSGVGVPGVGVPGVGVPGVGVPGVGVPGVGVPGVGVPGVGVPGAGAGSGAGAGSGAGAGSGAGAGSGAGAGSGVGVPGVGVPGVGVPGVGVPGVGVPGVGVPGVGVPGVGVPGAGAGSGAGAGSGAGAGSGAGAGSGAGAGSGVGVPGVGVPGVGVPGVGVPGVGVPGVGVPGVGVPGVGVPGAGAGSGAGAGSGAGAGSGAGAGSGAGAGSGVGVPGVGVPGVGVPGVGVPGVGVPGVGVPGVGVPGVGVPGAGAGSGAGAGSGAGAGSGAGAGSGAGAGSGVGVPGVGVPGVGVPGVGVPGVGVPGVGVPGVGVPGVGVPGAGAGSGAGAGSGAGAGSGAGAGSGAGAGSMDPGRYQLSAGRYHYQLVWCQK
modifications: SELP 58
B3: SELP47E-3: SELP variant, 3 subunits, lysine substituted by glutamic acid (SEQ ID NO:28) (protein)
chain: MDPVVLQRRDWENPGVTQLNRLAAHPPFASDPMGAGAGSGAGAGSGVGVPGVGVPGVGVPGVGVPGEGVPGVGVPGVGVPGVGVPGAGAGSGAGAGSGAGAGSGAGAGSGVGVPGVGVPGVGVPGVGVPGEGVPGVGVPGVGVPGVGVPGAGAGSGAGAGSGAGAGSGAGAGSGVGVPGVGVPGVGVPGVGVPGEGVPGVGVPGVGVPGVGVPGAGAGSGAGAGSGAGAMDPGRYQDLRSHHHHHH
modifications: SELP 47E-3
B4: SELP47R-3: SELP variant, 3 subunits, lysine substituted by arginine (SEQ ID NO:26) (protein)
chain: B3 chain with D2P, E67R, E131R, E195R
modifications: SELP 47R-3
B5: SELP67K: SELP variant, 13 subunits (SEQ ID NO:30) (protein)
chain: MDPVVLQRRDWENPGVTQLNRLAAHPPFASDPMGVGVPGVGVPGVGVPGVGVPGKGVPGVGVPGVGVPGVGVPGAGAGSGAGAGSGAGAGSGAGAGSGAGAGSGAGAGSGVGVPGVGVPGVGVPGVGVPGKGVPGVGVPGVGVPGVGVPGAGAGSGAGAGSGAGAGSGAGAGSGAGAGSGAGAGSGVGVPGVGVPGVGVPGVGVPGKGVPGVGVPGVGVPGVGVPGAGAGSGAGAGSGAGAGSGAGAGSGAGAGSGAGAGSGVGVPGVGVPGVGVPGVGVPGKGVPGVGVPGVGVPGVGVPGAGAGSGAGAGSGAGAGSGAGAGSGAGAGSGAGAGSGVGVPGVGVPGVGVPGVGVPGKGVPGVGVPGVGVPGVGVPGAGAGSGAGAGSGAGAGSGAGAGSGAGAGSGAGAGSGVGVPGVGVPGVGVPGVGVPGKGVPGVGVPGVGVPGVGVPGAGAGSGAGAGSGAGAGSGAGAGSGAGAGSGAGAGSGVGVPGVGVPGVGVPGVGVPGKGVPGVGVPGVGVPGVGVPGAGAGSGAGAGSGAGAGSGAGAGSGAGAGSGAGAGSGVGVPGVGVPGVGVPGVGVPGKGVPGVGVPGVGVPGVGVPGAGAGSGAGAGSGAGAGSGAGAGSGAGAGSGAGAGSGVGVPGVGVPGVGVPGVGVPGKGVPGVGVPGVGVPGVGVPGAGAGSGAGAGSGAGAGSGAGAGSGAGAGSGAGAGSGVGVPGVGVPGVGVPGVGVPGKGVPGVGVPGVGVPGVGVPGAGAGSGAGAGSGAGAGSGAGAGSGAGAGSGAGAGSGVGVPGVGVPGVGVPGVGVPGKGVPGVGVPGVGVPGVGVPGAGAGSGAGAGSGAGAGSGAGAGSGAGAGSGAGAGSGVGVPGVGVPGVGVPGVGVPGKGVPGVGVPGVGVPGVGVPGAGAGSGAGAGSGAGAGSGAGAGSGAGAGSGAGAGSGVGVPGVGVPGVGVPGVGVPGKGVPGVGVPGVGVPGVGVPGAGAGSGAGAGSGAGAGSGAGAGSGAGAGSGAGAGSMDPGRYQDLRSHHHHHH
modifications: SELP 67K
B6: SELP47E: SELP variant, 13 subunits, lysine substituted by glutamic acid (protein)
chain: MDPVVLQRRDWENPGVTQLNRLAAHPPFASDPMGAGSGAGAGSGVGVPGVGVPGVGVPGVGVPGEGVPGVGVPGVGEPGVGVPGAGAGSGAGAGSGAGAGSGAGAGSGVGVPGVGVPGVGVPGVGVPGEGVPGVGVPGVGEPGVGVPGAGAGSGAGAGSGAGAGSGAGAGSGVGVPGVGVPGVGVPGVGVPGEGVPGVGVPGVGEPGVGVPGAGAGSGAGAGSGAGAGSGAGAGSGVGVPGVGVPGVGVPGVGVPGEGVPGVGVPGVGEPGVGVPGAGAGSGAGAGSGAGAGSGAGAGSGVGVPGVGVPGVGVPGVGVPGEGVPGVGVPGVGEPGVGVPGAGAGSGAGAGSGAGAGSGAGAGSGVGVPGVGVPGVGVPGVGVPGEGVPGVGVPGVGEPGVGVPGAGAGSGAGAGSGAGAGSGAGAGSGVGVPGVGVPGVGVPGVGVPGEGVPGVGVPGVGEPGVGVPGAGAGSGAGAGSGAGAGSGAGAGSGVGVPGVGVPGVGVPGVGVPGEGVPGVGVPGVGEPGVGVPGAGAGSGAGAGSGAGAGSGAGAGSGVGVPGVGVPGVGVPGVGVPGEGVPGVGVPGVGEPGVGVPGAGAGSGAGAGSGAGAGSGAGAGSGVGVPGVGVPGVGVPGVGVPGEGVPGVGVPGVGEPGVGVPGAGAGSGAGAGSGAGAGSGAGAGSGVGVPGVGVPGVGVPGVGVPGEGVPGVGVPGVGEPGVGVPGAGAGSGAGAGSGAGAGSGAGAGSGVGVPGVGVPGVGVPGVGVPGEGVPGVGVPGVGEPGVGVPGAGAGSGAGAGSGAGAGSGAGAGSGVGVPGVGVPGVGVPGVGVPGEGVPGVGVPGVGEPGVGVPGAGAGSGAGAGSGAGAMDPGRYQDLRSHHHHHH
modifications: SELP 47E-13
notes: SELP variant, 13 subunits, lysine substituted by glutamic acid

The series is described as follows: Isoelectric point determination (IEF gel). To be noted: SELP variants, Table 2. In kind it is physicochemical. As to the method:
In this Example, experiments performed to determine the isoelectric point and cloud point of SELP47K (Example 1) are described. The isoelectric point of SELP47K was determined by electrophoresing 5 mg/ml SELP47K solution using Isoelectric Focusing Electrophoresis (IEF) gel and Novex electrophoresis apparatus along with protein standards markers.
With B1, the “Isoelectric Point” value is on record as 9.52. The result for B2 reads 6.7. Consider B3, for which the “Isoelectric Point” value turned out to be 5.9. Turning to B4, the “Isoelectric Point” value was determined as 10.5. Turning to B5, the “Isoelectric Point” value amounted to 10.53.

For the molecule B6, the “Isoelectric Point” value amounted to 4.16.
